Test results: PMC9482650, “Quantitative fragmentomics allow affinity mapping of interactomes” (Nature Communications, 2022)

Legend:
Experiment in all cases: holdup assay
Design in all cases: key: below the threshold = too weak to quantify, mostly under pKd 3.1 to 4
[1] = target: NOS1, P29475
[2] = target: MAGI2_5, Q86UL8
[3] = target: T1, LNX2_2, Q8N448
T1 sequence (Q8N448 334-432, limits assumed, looked up): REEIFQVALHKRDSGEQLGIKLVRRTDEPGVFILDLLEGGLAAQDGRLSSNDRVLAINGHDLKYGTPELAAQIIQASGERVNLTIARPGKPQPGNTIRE

[4] = target: SCRIB_3, Q14160
SCRIB_3, Q14160, sequence (Q14160 999-1103): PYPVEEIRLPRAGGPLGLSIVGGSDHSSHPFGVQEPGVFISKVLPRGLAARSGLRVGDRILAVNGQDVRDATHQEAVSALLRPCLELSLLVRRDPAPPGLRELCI

[5] = target: T2, APBA2_1, Q99767
T2 sequence (Q99767 563-664, limits assumed, looked up): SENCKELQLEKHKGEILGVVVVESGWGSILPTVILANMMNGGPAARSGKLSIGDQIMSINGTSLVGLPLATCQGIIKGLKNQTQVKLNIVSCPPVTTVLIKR

[6] = target: LNX1_3, Q8TBB1
LNX1_3, Q8TBB1, sequence (Q8TBB1 500-596): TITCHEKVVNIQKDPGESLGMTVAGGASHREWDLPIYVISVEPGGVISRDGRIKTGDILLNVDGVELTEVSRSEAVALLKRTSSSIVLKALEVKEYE

[7] = target: T3, MPDZ_5, O75970
T3 sequence (O75970 695-796, limits assumed, looked up): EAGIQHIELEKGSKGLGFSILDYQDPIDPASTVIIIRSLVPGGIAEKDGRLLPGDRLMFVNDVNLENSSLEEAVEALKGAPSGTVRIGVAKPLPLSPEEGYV

[8] = target: GOPC, Q9HD26
[9] = target: MAGI2_6, Q86UL8
MAGI2_6, Q86UL8, sequence (Q86UL8 1141-1229): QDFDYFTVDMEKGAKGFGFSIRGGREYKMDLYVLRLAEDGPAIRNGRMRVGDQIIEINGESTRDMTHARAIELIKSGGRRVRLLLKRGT

[10] = target: NHERF4_2, Q86UT5
NHERF4_2, Q86UT5, sequence (Q86UT5 220-308): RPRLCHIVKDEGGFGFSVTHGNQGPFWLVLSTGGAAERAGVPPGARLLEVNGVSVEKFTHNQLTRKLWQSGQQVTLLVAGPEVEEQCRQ

[11] = target: T4, GRIP1_5, Q9Y3R0
T4 sequence (Q9Y3R0 568-668, limits assumed, looked up): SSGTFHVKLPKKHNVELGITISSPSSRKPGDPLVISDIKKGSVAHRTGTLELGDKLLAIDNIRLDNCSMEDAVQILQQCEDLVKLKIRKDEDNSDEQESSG

[12] = target: MAGI2_4, Q86UL8
MAGI2_4, Q86UL8, sequence (Q86UL8 772-865): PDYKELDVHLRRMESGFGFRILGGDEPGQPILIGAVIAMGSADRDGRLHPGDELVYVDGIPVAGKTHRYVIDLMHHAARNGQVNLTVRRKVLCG

[13] = target: PICK1, Q9NRD5
PICK1, Q9NRD5, sequence (Q9NRD5 17-115): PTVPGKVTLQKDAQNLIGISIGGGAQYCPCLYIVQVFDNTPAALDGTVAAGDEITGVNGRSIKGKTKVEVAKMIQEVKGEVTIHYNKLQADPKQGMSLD

[14] = target: MAGI1_2, Q96QZ7
MAGI1_2, Q96QZ7, sequence (Q96QZ7 456-580): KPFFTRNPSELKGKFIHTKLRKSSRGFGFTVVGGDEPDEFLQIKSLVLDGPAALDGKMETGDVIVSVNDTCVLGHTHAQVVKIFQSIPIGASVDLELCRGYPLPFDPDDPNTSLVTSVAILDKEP

[15] = target: T5, NHERF3_4, Q5T2W1
T5 sequence (Q5T2W1 373-468, limits assumed, looked up): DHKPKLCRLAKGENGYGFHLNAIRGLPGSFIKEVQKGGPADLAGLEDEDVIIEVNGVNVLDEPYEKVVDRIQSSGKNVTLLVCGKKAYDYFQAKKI

[16] = target: T6, PDZD7_3, Q9H5P4
T6 sequence (Q9H5P4 857-944, limits assumed, looked up): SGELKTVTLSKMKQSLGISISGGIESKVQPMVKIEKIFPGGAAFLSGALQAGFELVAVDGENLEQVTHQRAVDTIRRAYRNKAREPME

[17] = target: T7, SYNJ2BP, P57105
T7 sequence (P57105 8-110, limits assumed, looked up): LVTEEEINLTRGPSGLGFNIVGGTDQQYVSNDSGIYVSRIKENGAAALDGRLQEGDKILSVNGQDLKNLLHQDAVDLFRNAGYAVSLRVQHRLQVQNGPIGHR

[18] = target: GORASP1, Q9BQQ3
GORASP1, Q9BQQ3, sequence (Q9BQQ3 1-208): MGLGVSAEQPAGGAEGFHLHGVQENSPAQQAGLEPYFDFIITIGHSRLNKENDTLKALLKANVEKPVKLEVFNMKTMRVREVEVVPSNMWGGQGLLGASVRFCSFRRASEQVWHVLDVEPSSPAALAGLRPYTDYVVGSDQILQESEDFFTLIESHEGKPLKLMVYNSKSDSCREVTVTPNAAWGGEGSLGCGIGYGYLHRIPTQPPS

[19] = target: IL16_3, Q14005
IL16_3, Q14005, sequence (Q14005 1107-1207): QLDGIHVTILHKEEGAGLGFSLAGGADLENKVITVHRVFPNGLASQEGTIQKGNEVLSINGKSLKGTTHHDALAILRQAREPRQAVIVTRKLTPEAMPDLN

[20] = target: TJP2_1, Q9UDY2
TJP2_1, Q9UDY2, sequence (Q9UDY2 24-128): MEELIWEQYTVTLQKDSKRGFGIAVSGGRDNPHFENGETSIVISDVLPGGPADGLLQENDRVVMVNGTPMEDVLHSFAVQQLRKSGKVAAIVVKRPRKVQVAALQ

[21] = target: T8, PDZD2_2, O15018
T8 sequence (O15018 329-429, limits assumed, looked up): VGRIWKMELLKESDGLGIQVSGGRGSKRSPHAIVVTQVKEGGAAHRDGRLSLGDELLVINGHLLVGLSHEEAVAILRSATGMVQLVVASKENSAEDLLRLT

[22] = target: T9, PDZRN3_1, Q9UPQ7
T9 sequence (Q9UPQ7 244-349, limits assumed, looked up): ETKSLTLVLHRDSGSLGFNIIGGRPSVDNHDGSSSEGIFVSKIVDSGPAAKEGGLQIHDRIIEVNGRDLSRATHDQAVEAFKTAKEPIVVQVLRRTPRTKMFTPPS

[23] = target: T10, TJP3_3, O95049
T10 sequence (O95049 375-456, limits assumed, looked up): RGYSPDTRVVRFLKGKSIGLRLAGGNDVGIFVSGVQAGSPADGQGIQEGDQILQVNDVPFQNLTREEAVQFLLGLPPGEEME

[24] = target: LNX1_1, Q8TBB1
LNX1_1, Q8TBB1, sequence (Q8TBB1 261-371): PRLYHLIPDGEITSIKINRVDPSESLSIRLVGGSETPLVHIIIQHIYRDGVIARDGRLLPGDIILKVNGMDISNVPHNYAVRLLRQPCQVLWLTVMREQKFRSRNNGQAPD

[25] = target: T11, RADIL, Q96JH8
T11 sequence (Q96JH8 971-1071, limits assumed, looked up): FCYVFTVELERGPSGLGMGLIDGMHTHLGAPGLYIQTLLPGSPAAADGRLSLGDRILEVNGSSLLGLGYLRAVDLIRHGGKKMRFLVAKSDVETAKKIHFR

[26] = target: T12, LNX2_3, Q8N448
T12 sequence (Q8N448 463-564, limits assumed, looked up): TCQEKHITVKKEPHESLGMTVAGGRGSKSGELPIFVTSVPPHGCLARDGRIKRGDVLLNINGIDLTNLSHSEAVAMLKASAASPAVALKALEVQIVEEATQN

[27] = plain residues with an end cap or a label only (N-terminal biotin on a linker: ado-ado)
[28] = plain residues with an end cap or a label only (N-terminal biotin on a linker: ahx)
[29] = plain residues with an end cap or a label only (N-terminal biotin on a linker: ttds)

NOS1, P29475, sequence (P29475 9-101): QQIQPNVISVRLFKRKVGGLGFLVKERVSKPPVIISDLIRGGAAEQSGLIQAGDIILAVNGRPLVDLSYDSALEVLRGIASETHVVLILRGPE
MAGI2_5, Q86UL8, sequence (Q86UL8 915-1017): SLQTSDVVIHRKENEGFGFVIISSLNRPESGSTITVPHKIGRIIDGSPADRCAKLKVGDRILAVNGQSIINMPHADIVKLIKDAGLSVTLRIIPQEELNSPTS

B1: CBY2, Q8NA61 (peptide)
chain: SQDPKKPSRV
pKd [1, 27]: 3.76
pKd [2, 27]: below the threshold
pKd [3, 27]: below the threshold
pKd [4, 27]: below the threshold
pKd [5, 27]: below the threshold
pKd [6, 27]: below the threshold
pKd [7, 27]: below the threshold
pKd [8, 27]: 3.75
pKd [9, 27]: below the threshold
pKd [10, 27]: below the threshold
pKd [11, 27]: below the threshold
pKd [12, 27]: below the threshold
pKd [13, 27]: 4.21
pKd [14, 27]: below the threshold
pKd [15, 27]: below the threshold
pKd [16, 27]: below the threshold
pKd [17, 27]: 3.66
pKd [18, 27]: below the threshold
pKd [19, 27]: below the threshold
pKd [20, 27]: below the threshold
pKd [21, 27]: below the threshold
pKd [22, 27]: 3.56
pKd [23, 27]: below the threshold
pKd [24, 27]: 3.5
pKd [25, 27]: 3.61
pKd [26, 27]: below the threshold

B2: MTMR1, Q13613 (peptide)
chain: HSATSVHTSV
pKd [1, 28]: 3.55
pKd [2, 28]: 4.02
pKd [3, 28]: 3.96
pKd [4, 28]: 3.74
pKd [5, 28]: below the threshold
pKd [6, 28]: below the threshold
pKd [7, 28]: below the threshold
pKd [8, 28]: 3.75
pKd [9, 28]: 3.66
pKd [10, 28]: below the threshold
pKd [11, 28]: below the threshold
pKd [12, 28]: below the threshold
pKd [13, 28]: below the threshold
pKd [14, 28]: 3.52
pKd [15, 28]: below the threshold
pKd [16, 28]: 3.87
pKd [17, 28]: 4.42
pKd [18, 28]: below the threshold
pKd [19, 28]: below the threshold
pKd [20, 28]: below the threshold
pKd [21, 28]: 4.23
pKd [22, 28]: below the threshold
pKd [23, 28]: below the threshold
pKd [24, 28]: below the threshold
pKd [25, 28]: below the threshold
pKd [26, 28]: below the threshold

B3: DGKI, O75912 (peptide)
chain: IGHEDLETAV
pKd [1, 27]: 4.17
pKd [2, 27]: 4.82
pKd [3, 27]: 3.73
pKd [4, 27]: 4.91
pKd [5, 27]: below the threshold
pKd [6, 27]: below the threshold
pKd [7, 27]: below the threshold
pKd [8, 27]: 3.58
pKd [9, 27]: 4.59
pKd [10, 27]: below the threshold
pKd [11, 27]: below the threshold
pKd [12, 27]: below the threshold
pKd [13, 27]: below the threshold
pKd [14, 27]: below the threshold
pKd [15, 27]: below the threshold
pKd [16, 27]: 4.59
pKd [17, 27]: 5.25
pKd [18, 27]: below the threshold
pKd [19, 27]: below the threshold
pKd [20, 27]: below the threshold
pKd [21, 27]: 5.25
pKd [22, 27]: 4.75
pKd [23, 27]: below the threshold
pKd [24, 27]: 3.58
pKd [25, 27]: below the threshold
pKd [26, 27]: below the threshold

B4: PODXL, O00592 (peptide)
chain: DLDEEEDTHL
pKd [1, 29]: below the threshold
pKd [2, 29]: below the threshold
pKd [3, 29]: 3.48
pKd [4, 29]: below the threshold
pKd [5, 29]: below the threshold
pKd [6, 29]: below the threshold
pKd [7, 29]: below the threshold
pKd [8, 29]: below the threshold
pKd [9, 29]: below the threshold
pKd [10, 29]: below the threshold
pKd [11, 29]: below the threshold
pKd [12, 29]: below the threshold
pKd [13, 29]: below the threshold
pKd [14, 29]: below the threshold
pKd [15, 29]: below the threshold
pKd [16, 29]: 3.59
pKd [17, 29]: below the threshold
pKd [18, 29]: below the threshold
pKd [19, 29]: below the threshold
pKd [20, 29]: below the threshold
pKd [21, 29]: 4
pKd [22, 29]: below the threshold
pKd [23, 29]: 3.5
pKd [24, 29]: below the threshold
pKd [25, 29]: below the threshold
pKd [26, 29]: below the threshold
